Consider 13 variants from IntAct's records for PubMed 31515488.

First the molecules themselves.
B1: U3 small nucleolar RNA-associated protein 14 homolog A (Homo sapiens), Q9BVJ6 (parent)
chain: MTANRLAESLLALSQQEELADLPKDYLLSESEDEGDNDGERKHQKLLEAISSLDGKNRRKLAERSEASLKVSEFNVSSEGSGEKLVLADLLEPVKTSSSLATVKKQLSRVKSKKTVELPLNKEEIERIHREVAFNKTAQVLSKWDPVVLKNRQAEQLVFPLEKEEPAIAPIEHVLSGWKARTPLEQEIFNLLHKNKQPVTDPLLTPVEKASLRAMSLEEAKMRRAELQRARALQSYYEAKARREKKIKSKKYHKVVKKGKAKKALKEFEQLRKVNPAAALEELEKIEKARMMERMSLKHQNSGKWAKSKAIMAKYDLEARQAMQEQLSKNKELTQKLQVASESEEEEGGTEDVEELLVPDVVNEVQMNADGPNPWMLRSCTSDTKEAATQEDPEQLPELEAHGVSESEGEERPVAEEEILLREFEERRSLRKRSELSQDAEPAGSQETKDSGSQEVLSELRVLSQKLKENHQSRKQKASSEGTIPQVQREEPAPEEEEPLLLQRPERVQTLEELEELGKEECFQNKELPRPVLEGQQSERTPNNRPDAPKEKKKKEQMIDLQNLLTTQSPSVKSLAVPTIEELEDEEERNHRQMIKEAFAGDDVIRDFLKEKREAVEASKPKDVDLTLPGWGEWGGVGLKPSAKKRRRFLIKAPEGPPRKDKNLPNVIINEKRNIHAAAHQVRVLPYPFTHHWQFERTIQTPIGSTWNTQRAFQKLTTPKVVTKPGHIINPIKAEDVGYRSSSRSDLSVIQRNPKRITTRHKKQLKKCSVD
partner: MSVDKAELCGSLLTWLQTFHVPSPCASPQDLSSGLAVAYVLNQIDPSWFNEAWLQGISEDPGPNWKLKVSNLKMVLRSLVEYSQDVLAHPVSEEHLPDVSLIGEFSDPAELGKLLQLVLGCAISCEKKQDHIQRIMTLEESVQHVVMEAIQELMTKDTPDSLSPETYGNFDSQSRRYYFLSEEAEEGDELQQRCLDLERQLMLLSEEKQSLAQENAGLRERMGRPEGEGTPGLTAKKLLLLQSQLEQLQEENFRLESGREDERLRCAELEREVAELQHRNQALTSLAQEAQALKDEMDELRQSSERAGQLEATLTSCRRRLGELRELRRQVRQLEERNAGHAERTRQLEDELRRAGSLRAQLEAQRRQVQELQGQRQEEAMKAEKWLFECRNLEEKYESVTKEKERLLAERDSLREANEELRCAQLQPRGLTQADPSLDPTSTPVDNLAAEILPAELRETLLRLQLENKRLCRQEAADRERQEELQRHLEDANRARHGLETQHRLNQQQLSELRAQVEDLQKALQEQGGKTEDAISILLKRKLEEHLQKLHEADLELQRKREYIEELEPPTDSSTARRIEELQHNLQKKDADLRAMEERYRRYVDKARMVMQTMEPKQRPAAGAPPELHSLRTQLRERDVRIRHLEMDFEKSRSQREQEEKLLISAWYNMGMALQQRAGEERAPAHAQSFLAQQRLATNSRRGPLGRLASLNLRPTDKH
B2: Pre-mRNA-splicing factor SPF27 (Homo sapiens), O75934 (parent)
chain: MAGTGLVAGEVVVDALPYFDQGYEAPGVREAAAALVEEETRRYRPTKNYLSYLTAPDYSAFETDIMRNEFERLAARQPIELLSMKRYELPAPSSGQKNDITAWQECVNNSMAQLEHQAVRIENLELMSQHGCNAWKVYNENLVHMIEHAQKELQKLRKHIQDLNWQRKNMQLTAGSKLREMESNWVSLVSKNYEIERTIVQLENEIYQIKQQHGEANKENIRQDF
B3: Bleomycin hydrolase (Homo sapiens), Q13867 (parent)
chain: MSSSGLNSEKVAALIQKLNSDPQFVLAQNVGTTHDLLDICLKRATVQRAQHVFQHAVPQEGKPITNQKSSGRCWIFSCLNVMRLPFMKKLNIEEFEFSQSYLFFWDKVERCYFFLSAFVDTAQRKEPEDGRLVQFLLMNPANDGGQWDMLVNIVEKYGVIPKKCFPESYTTEATRRMNDILNHKMREFCIRLRNLVHSGATKGEISATQDVMMEEIFRVVCICLGNPPETFTWEYRDKDKNYQKIGPITPLEFYREHVKPLFNMEDKICLVNDPRPQHKYNKLYTVEYLSNMVGGRKTLYNNQPIDFLKKMVAASIKDGEAVWFGCDVGKHFNSKLGLSDMNLYDHELVFGVSLKNMNKAERLTFGESLMTHAMTFTAVSEKDDQDGAFTKWRVENSWGEDHGHKGYLCMTDEWFSEYVYEVVVDRKHVPEEVLAVLEQEPIILPAWDPMGALAE
B4: DNA mismatch repair protein Mlh1 (Homo sapiens), P40692 (parent)
chain: MSFVAGVIRRLDETVVNRIAAGEVIQRPANAIKEMIENCLDAKSTSIQVIVKEGGLKLIQIQDNGTGIRKEDLDIVCERFTTSKLQSFEDLASISTYGFRGEALASISHVAHVTITTKTADGKCAYRASYSDGKLKAPPKPCAGNQGTQITVEDLFYNIATRRKALKNPSEEYGKILEVVGRYSVHNAGISFSVKKQGETVADVRTLPNASTVDNIRSIFGNAVSRELIEIGCEDKTLAFKMNGYISNANYSVKKCIFLLFINHRLVESTSLRKAIETVYAAYLPKNTHPFLYLSLEISPQNVDVNVHPTKHEVHFLHEESILERVQQHIESKLLGSNSSRMYFTQTLLPGLAGPSGEMVKSTTSLTSSSTSGSSDKVYAHQMVRTDSREQKLDAFLQPLSKPLSSQPQAIVTEDKTDISSGRARQQDEEMLELPAPAEVAAKNQSLEGDTTKGTSEMSEKRGPTSSNPRKRHREDSDVEMVEDDSRKEMTAACTPRRRIINLTSVLSLQEEINEQGHEVLREMLHNHSFVGCVNPQWALAQHQTKLYLLNTTKLSEELFYQILIYDFANFGVLRLSEPAPLFDLAMLALDSPESGWTEEDGPKEGLAEYIVEFLKKKAEMLADYFSLEIDEEGNLIGLPLLIDNYVPPLEGLPIFILRLATEVNWDEEKECFESLSKECAMFYSIRKQYISEESTLSGQQSEVPGSIPNSWKWTVEHIVYKALRSHILPPKHFTEDGNILQLANLPDLYKVFERC
partner: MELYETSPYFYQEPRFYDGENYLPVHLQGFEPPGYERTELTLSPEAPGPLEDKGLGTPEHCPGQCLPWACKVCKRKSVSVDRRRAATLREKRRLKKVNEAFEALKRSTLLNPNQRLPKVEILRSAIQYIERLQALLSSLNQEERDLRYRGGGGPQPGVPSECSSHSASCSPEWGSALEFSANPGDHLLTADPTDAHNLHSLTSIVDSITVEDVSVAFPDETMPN
B5: Segment polarity protein dishevelled homolog DVL-2 (Homo sapiens), O14641 (parent)
chain: MAGSSTGGGGVGETKVIYHLDEEETPYLVKIPVPAERITLGDFKSVLQRPAGAKYFFKSMDQDFGVVKEEISDDNARLPCFNGRVVSWLVSSDNPQPEMAPPVHEPRAELAPPAPPLPPLPPERTSGIGDSRPPSFHPNVSSSHENLEPETETESVVSLRRERPRRRDSSEHGAGGHRTGGPSRLERHLAGYESSSTLMTSELESTSLGDSDEEDTMSRFSSSTEQSSASRLLKRHRRRRKQRPPRLERTSSFSSVTDSTMSLNIITVTLNMEKYNFLGISIVGQSNERGDGGIYIGSIMKGGAVAADGRIEPGDMLLQVNDMNFENMSNDDAVRVLRDIVHKPGPIVLTVAKCWDPSPQAYFTLPRNEPIQPIDPAAWVSHSAALTGTFPAYPGSSSMSTITSGSSLPDGCEGRGLSVHTDMASVTKAMAAPESGLEVRDRMWLKITIPNAFLGSDVVDWLYHHVEGFPERREARKYASGLLKAGLIRHTVNKITFSEQCYYVFGDLSGGCESYLVNLSLNDNDGSSGASDQDTLAPLPGATPWPLLPTFSYQYPAPHPYSPQPPPYHELSSYTYGGGSASSQHSEGSRSSGSTRSDGGAGRTGRPEERAPESKSGSGSESEPSSRGGSLRRGGEASGTSDGGPPPSRGSTGGAPNLRAHPGLHPYGPPPGMALPYNPMMVVMMPPPPPPVPPAVQPPGAPPVRDLGSVPPELTASRQSFHMAMGNPSEFFVDVM
partner: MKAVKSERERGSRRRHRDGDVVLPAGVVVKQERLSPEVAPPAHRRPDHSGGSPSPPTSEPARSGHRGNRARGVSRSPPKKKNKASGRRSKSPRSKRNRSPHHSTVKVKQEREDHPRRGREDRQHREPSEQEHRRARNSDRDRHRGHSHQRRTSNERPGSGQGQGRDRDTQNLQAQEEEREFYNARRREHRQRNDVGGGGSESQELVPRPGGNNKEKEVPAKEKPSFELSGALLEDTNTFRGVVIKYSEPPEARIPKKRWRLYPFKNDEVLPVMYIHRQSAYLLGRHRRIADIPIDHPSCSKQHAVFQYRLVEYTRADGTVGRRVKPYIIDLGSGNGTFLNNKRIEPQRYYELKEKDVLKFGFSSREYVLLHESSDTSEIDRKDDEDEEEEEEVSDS

In the first experiment the parent is B1. The settings on record: with hook2_human HOOK2, Q96ED9.
For V256M, the “effect of a mutation on the interaction” value is on record as “with no effect”.

In another experiment the parent is B2. The settings on record: with itf2_human TCF4, P15884.
Sequence of itf2_human TCF4, P15884 (P15884 whole entry): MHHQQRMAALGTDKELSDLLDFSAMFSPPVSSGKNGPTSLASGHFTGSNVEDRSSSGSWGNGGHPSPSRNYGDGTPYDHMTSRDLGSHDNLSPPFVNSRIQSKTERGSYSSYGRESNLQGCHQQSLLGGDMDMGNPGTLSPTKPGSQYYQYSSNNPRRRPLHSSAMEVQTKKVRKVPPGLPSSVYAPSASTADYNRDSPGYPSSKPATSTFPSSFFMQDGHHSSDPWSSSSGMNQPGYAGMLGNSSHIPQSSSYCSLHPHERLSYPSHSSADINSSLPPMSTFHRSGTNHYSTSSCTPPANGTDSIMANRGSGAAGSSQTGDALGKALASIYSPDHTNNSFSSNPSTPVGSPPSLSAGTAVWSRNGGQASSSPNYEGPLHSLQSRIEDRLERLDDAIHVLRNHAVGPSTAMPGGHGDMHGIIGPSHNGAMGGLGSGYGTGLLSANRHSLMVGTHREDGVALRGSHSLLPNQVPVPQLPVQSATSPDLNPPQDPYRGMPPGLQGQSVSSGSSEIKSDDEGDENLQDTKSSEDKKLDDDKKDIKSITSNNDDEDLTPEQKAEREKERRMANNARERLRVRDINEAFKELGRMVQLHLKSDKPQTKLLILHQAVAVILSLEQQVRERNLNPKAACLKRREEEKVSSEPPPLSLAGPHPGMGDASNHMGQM
Regarding MAGTGLVAGEVVVDALPYFDQGYEAPGVREAAAALVEEETRRYRPTKNYLSYLTAPDYSAFETDIMRNEFERLAARQPIELLSMKRYELPAPSSGQKNDITAWQECVNNSMAQLEHQAVRIENLELMSQHGCNAWKVYSENLVHMIEHAQKELQKLRKHIQDLNWQRKNMQLTAGSKLREMESNWVSLVSKNYEIERTIVQLENEIYQIKQQHGEANKENIRQDF [N139S], the “effect of a mutation on the interaction” value is listed as “with no effect”.

The next experiment covers variants of B2. The settings on record: with hgs_human HGS.
Turning to MAGTGLVAGEVVVDALPYFDQGYEAPGVREAAAALVEEETRRYRPTKNYLSYLTAPDYSAFETDIMRNEFERLAARQPIELLSMKRYELPAPSSGQKNDITAWQECVNNSMAQLEHQAVRIENLELMSQHGCNAWKVYSENLVHMIEHAQKELQKLRKHIQDLNWQRKNMQLTAGSKLREMESNWVSLVSKNYEIERTIVQLENEIYQIKQQHGEANKENIRQDF [N139S], the “effect of a mutation on the interaction” value is given as “with no effect”.

Another experiment covers variants of B2. The settings on record: with ikzf3_human IKZF3, Q9UKT9.
Sequence of ikzf3_human IKZF3, Q9UKT9 (Q9UKT9 whole entry): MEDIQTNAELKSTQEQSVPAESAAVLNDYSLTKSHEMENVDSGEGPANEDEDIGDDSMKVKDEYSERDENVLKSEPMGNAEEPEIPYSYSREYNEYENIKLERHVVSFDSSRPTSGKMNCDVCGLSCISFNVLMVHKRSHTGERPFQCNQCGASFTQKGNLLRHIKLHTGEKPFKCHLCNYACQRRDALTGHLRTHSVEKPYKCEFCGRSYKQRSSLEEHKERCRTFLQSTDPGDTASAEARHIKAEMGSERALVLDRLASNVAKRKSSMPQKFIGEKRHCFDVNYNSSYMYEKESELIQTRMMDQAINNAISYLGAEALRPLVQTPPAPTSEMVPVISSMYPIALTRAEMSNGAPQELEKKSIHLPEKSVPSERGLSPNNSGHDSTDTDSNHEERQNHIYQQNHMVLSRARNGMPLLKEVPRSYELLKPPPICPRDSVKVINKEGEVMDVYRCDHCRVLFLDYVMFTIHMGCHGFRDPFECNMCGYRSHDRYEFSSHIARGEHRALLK
Turning to MAGTGLVAGEVVVDALPYFDQGYEAPGVREAAAALVEEETRRYRPTKNYLSYLTAPDYSAFETDIMRNEFERLAARQPIELLSMKRYELPAPSSGQKNDITAWQECVNNSMAQLEHQAVRIENLELMSQHGCNAWKVYSENLVHMIEHAQKELQKLRKHIQDLNWQRKNMQLTAGSKLREMESNWVSLVSKNYEIERTIVQLENEIYQIKQQHGEANKENIRQDF [N139S], the “effect of a mutation on the interaction” value was “with no effect”.

A further experiment covers variants of B3. The settings on record: with ntaq1_human NTAQ1, Q96HA8.
As for MSSSGLNSEKVAALIQKLNSDPQFVLAQNVGTTHDLLDICLKRATVQRAQHVFQHAVPQEGKPITNQKSSGRCWIFSCLNVMRLPFMKKLNIEEFEFSQSYLFFWDKVERCYFFLSAFVDTAQRKEPEDGRLVQFLLMNPANDGGQWDMLVNIVEKYGVIPKKCFPESYTTEATRRMNDILNHKMREFCIRLRNLVHSGATKGEISATQDVMMEEIFRVVCICLGNPPETFTWEYRDKDKNYQKIGPITPLEFYREHVKPLFNMEDKICLVNDPRPQHKYNKLYTVEYLSNMVGGRKTLYNNQPIDFLKKMVAASIKDGEAVWFGCDVGKHFNSKLGLSDMNLYDHELVFGVSLKNMNKAERLTFGESLMTHAMTFTAVSKKDDQDGAFTKWRVENSWGEDHGHKGYLCMTDEWFSEYVYEVVVDRKHVPEEVLAVLEQEPIILPAWDPMGALAE [E381K], the “effect of a mutation on the interaction” value was “with no effect”.

In a further experiment the parent is B3. The settings on record: with nud12_human NUDT12, Q9BQG2.
Sequence of nud12_human NUDT12, Q9BQG2 (Q9BQG2 whole entry): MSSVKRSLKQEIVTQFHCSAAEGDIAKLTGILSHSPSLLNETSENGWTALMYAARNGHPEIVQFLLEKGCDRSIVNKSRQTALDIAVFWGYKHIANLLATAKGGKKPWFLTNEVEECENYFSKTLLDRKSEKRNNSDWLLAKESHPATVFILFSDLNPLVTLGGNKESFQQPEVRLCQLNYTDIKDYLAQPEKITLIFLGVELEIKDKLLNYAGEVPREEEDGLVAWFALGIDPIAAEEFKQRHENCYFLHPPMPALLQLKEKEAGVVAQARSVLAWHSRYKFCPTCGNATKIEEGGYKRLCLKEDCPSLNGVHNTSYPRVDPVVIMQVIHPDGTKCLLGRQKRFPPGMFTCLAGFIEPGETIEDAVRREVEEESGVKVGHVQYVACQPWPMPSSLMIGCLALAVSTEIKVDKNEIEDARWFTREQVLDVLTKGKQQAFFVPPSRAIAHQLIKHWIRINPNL
For MSSSGLNSEKVAALIQKLNSDPQFVLAQNVGTTHDLLDICLKRATVQRAQHVFQHAVPQEGKPITNQKSSGRCWIFSCLNVMRLPFMKKLNIEEFEFSQSYLFFWDKVERCYFFLSAFVDTAQRKEPEDGRLVQFLLMNPANDGGQWDMLVNIVEKYGVIPKKCFPESYTTEATRRMNDILNHKMREFCIRLRNLVHSGATKGEISATQDVMMEEIFRVVCICLGNPPETFTWEYRDKDKNYQKIGPITPLEFYREHVKPLFNMEDKICLVNDPRPQHKYNKLYTVEYLSNMVGGRKTLYNNQPIDFLKKMVAASIKDGEAVWFGCDVGKHFNSKLGLSDMNLYDHELVFGVSLKNMNKAERLTFGESLMTHAMTFTAVSEKDDQDGAFTKWRVENSWGEDHGHKGYLCMTDEWFSEYVYEVVVDRKHVPEEVLAVLEQEPIVLPAWDPMGALAE [I443V], the “effect of a mutation on the interaction” value is reported as “with no effect”.

In another experiment the parent is B4. The settings on record: with myog_human MYOG.
Turning to S406N, the “effect of a mutation on the interaction” value is listed as “with no effect”.
Still for that read-out and setting: the same measure for A441T: “with no effect”; for S106N: “with no effect”.
With V326A, the “effect of a mutation on the interaction” value is reported as “with no effect”.
As to V213M, the “effect of a mutation on the interaction” value is listed as “with no effect”.
The same measure, in the same setting: with V384D the entry was “with no effect”.

The next experiment covers variants of B4. The settings on record: with myog_human MYOG. This is another data set of the same source.
Take R69K: the “effect of a mutation on the interaction” value was “with no effect”.

In the next experiment the parent is B5. The settings on record: with snip1_human SNIP1, Q8TAD8.
For A53V, the “effect of a mutation on the interaction” value was “with no effect”.
In the case of T535I, the “effect of a mutation on the interaction” value was “with no effect”.
